Measured values: article PMC4386031

Target: ubiquitin (monoUb), P0CG48
Assay: NMR titration; NZF domain added to 15N-labeled monoUb or diUb; BEST-TROSY, chemical shift perturbation; NMR PBS (18 mM Na2HPO4, 7 mM NaH2PO4 pH 7.2, 150 mM NaCl), 298 K

For NANKWSCHMCTYLNWPRAIRCTQCLSQRRT (domain or fragment, modifications not checked) [TRABID NZF2], the Kd was 1000 µM.

Binder RTQHWTCSVCTYENWAKAKRCVVCDHPRPN (domain or fragment, modifications not checked) [TRABID NZF3] has a Kd of 540 µM.
